T1: human IL-1α (human, UniProt P01583 113-271)
T1 construct: also called IL-1alpha; hIL-1α
T1 sequence (looked up): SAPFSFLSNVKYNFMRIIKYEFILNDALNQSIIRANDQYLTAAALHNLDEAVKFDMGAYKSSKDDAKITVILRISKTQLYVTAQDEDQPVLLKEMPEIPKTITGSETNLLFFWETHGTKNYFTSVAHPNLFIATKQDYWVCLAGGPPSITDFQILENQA


Molecular target: T1, human IL-1α
Experiment: Table 62 IC50; RBA presumed

| IC50 | Binder |
| --- | --- |
| 0.2 nM | ABT1-95-35 (other, VK dAb) VL: DIQMTQSPSSLSASVGDRVTITCRASGPIVRNLRWYQQKPGKAPKLLIYSSSYLEPGVPSRFSGSGSGTDFTLTISSLQPEDFATYHCQQGYRWPVTFGQGTKVEIKR |
| 1 nM | ABT1-95-71 (other, VK dAb) VL: DIQMTQSPSSLSASVGDRVTITCRASQPIVRNLRWYQQKPGKAPKLLIYNSSYLEPGVPSRFSGSGSGTDFTLTISSLQPEDFATYHCQQGYRWPVTFGQGTKVEIKR |
| 3 nM | ABT1-95-73 (other, VK dAb) VL: DIQMTQSPSSLSASVGDRVTITCRASQPIVRNLRWYQQKPGKAPKLLIYQSSYLEPGVPSRFSGSGSGTDFTLTISSLQPEDFATYHCQQGYRWPVTFGQGTKVEIKR |
| 0.3 nM | ABT1-95-77 (other, VK dAb) VL: DIQMTQSPSSLSASVGDRVTITCRASQPIVRNLRWYQQKPGKAPELLIYSGSYLEPGVPSRFSGSGSGTDFTLTISSLQPEDFATYHCQQGYRWPVTFGQGTKVEIKR |
| 0.6 nM | ABT1-95-58 (other, VK dAb) VL: DIQMTQSPSSLSASVGDRVTITCRARQPIVSNLRWYQQKPGKAPKLLIYSSSYLEPGVPSRFSGSGSGTDFTLTISSLQPEDFATYHCQQGYRWPVTFGQGTKVEIKR |
| 1 nM | ABT1-95-52 (other, VK dAb) VL: DIQMTQSPSSLSASVGDRVTITCRASQPIVSNLRWYQQKPGKAPKLLIYSSSYLEPGVPSRFSGSGSGTDFTLTISSLQPEDFATYHCQQGYRWPVTFGQGTKVEIKR |
| 0.8 nM | ABT1-95-46 (other, VK dAb) VL: DIQMTQSPSSLSASVGDRVTITCRASSPIVQNLRWYQQKPGKAPKLLIYSSSYLEPGVPSRFSGSGSGTDFTLTISSLQPEDFATYHCQQGYRWPVTFGQGTKVEIKR |
| 1 nM | ABT1-95-54 (other, VK dAb) VL: DIQMTQSPSSLSASVGDRVTITCRASQPIVTNLRWYQQKPGKAPKLLIYSSSYLEPGVPSRFSGSGSGTDFTLTISSLQPEDFATYHCQQGYRWPVTFGQGTKVEIKR |
| 1 nM | ABT1-95-69 (other, VK dAb) VL: DIQMTQSPSSLSASVGDRVTITCRASQPIVRNLRWYQQKPGKAPKLLIYKSSYLEPGVPSRFSGSGSGTDFTLTISSLQPEDFATYHCQQGYRWPVTFGQGTKVEIKR |
| 0.1 nM | ABT1-95-42 (other, VK dAb) VL: DIQMTQSPSSLSASVGDRVTITCRASFPIVRNLRWYQQKPGKAPKLLIYSSSYLEPGVPSRFSGSGSGTDFTLTISSLQPEDFATYHCQQGYRWPVTFGQGTKVEIKR |
| 0.2 nM | ABT1-95-65 (other, VK dAb) VL: DIQMTQSPSSLSASVGDRVTITCRASQPIVRNLRWYQQKPGKAPKLLIYGSSYLEPGVPSRFSGSGSGTDFTLTISSLQPEDFATYHCQQGYRWPVTFGQGTKVEIKR |
| 0.3 nM | ABT1-95-59 (other, VK dAb) VL: DIQMTQSPSSLSASVGDRVTITCRASQPIVKNLRWYQQKPGKAPKLLIYSSSYLEPGVPSRFSGSGSGTDFTLTISSLQPEDFATYHCQQGYRWPVTFGQGTKVEIKR |
| 0.7 nM | ABT1-95-60 (other, VK dAb) VL: DIQMTQSPASLSASVGDRVTITCRASQPIVANLRWYQQKPGKAPKLLIYSSSYLEPGVPSRFSGSGSGTDFTLTISSLQPEDFATYHCQQGYRWPVTFGQGTKVEIKR |
| 0.3 nM | ABT1-95-76 (other, VK dAb) VL: DIQMTQSPSSLSASVGDRVTITCRASQPIVRNLRWYQQKPGKAPKLLIYSGSYLEPGVPSRFSGSGSGTDFTLTISSLQPEDFATYHCQQGYRWPVTFGQGTKVEIKR |
| 0.6 nM | ABT1-95-57 (other, VK dAb) VL: DIQMTQSPSSLSASVGDRVTITCRASQPIVENLRWYQQKPGKAPKLLIYSSSYLEPGVPSRFSGSGSGTDFTLTISSLQPEDFATYHCQQGYRWPVTFGQGTKVEIKR |
| 0.3 nM | ABT1-95-74 (other, VK dAb) VL: DIQMTQSPSSLSASVGDRVTITCRASQPIVRNLRWYQQRPGKAPKLLIYSGSYLEPGVPSRFSGSGSGTDFTLTISSLQPEDFATYHCQQGYRWPVTFGQGTKVEIKR |
| 0.6 nM | ABT1-95-55 (other, VK dAb) VL: DIQMTQSPSSLSASVGDRVTITCRASQPIVHNLRWYQQKPGKAPKLLIYSSSYLEPGVPSRFSGSGSGTDFTLTISSLQPEDFATYHCQQGYRWPVTFGQGTKVEIKR |
| 0.3 nM | ABT1-95-78 (other, VK dAb) VL: DIQMTQSPSSLSASVGDRVTITCRASQPIVRNLRWYQQKPGKAPKLLIYSESYLEPGVPSRFSGSGSGTDFTLTISSLQPEDFATYHCQQGYRWPVTFGQGTKVEIKR |
| 0.2 nM | ABT1-95-39 (other, VK dAb) VL: DIQMTQSPSSLSASVGDRVTITCRASQPIVRNLRWYQQKPGKAPKLLIYSSSYLEPGVPSRFSGSGSGTDFTLTISGLQPEDFATYHCQQGYRWPVTFGQGTKVEIKR |
| 1 nM | ABT1-95-72 (other, VK dAb) VL: DIQMTQSPSSLSASVGDRVTITCRASQPIVRNLRWYQQKPGKAPKLLIYHSSYLEPGVPSRFSGSGSGTDFTLTISSLQPEDFATYHCQQGYRWPVTFGQGTKVEIKR |
| 0.5 nM | ABT1-95-50 (other, VK dAb) VL: DIQMTQSPSSLSASVGDRVTITCRASQPIPRNLRWYQQKPGKAPKLLIYSSSYLEPGVPSRFSGSGSGTDFTLTISSLQPEDFATYHCQQGYRWPVTFGQGTKVEIKR |
| 0.3 nM | ABT1-95-53 (other, VK dAb) VL: DIQMTQSPSSLSASVGDRVTITCRASQPIVANLRWYQQKPGKAPKLLIYSSSYLEPGVPSRFSGSGSGTDFTLTISSLQPEDFATYHCQQGYRWPVTFGQGTKVEIKR |
| 0.6 nM | ABT1-95-63 (other, VK dAb) VL: DIQMTQSPSSLSASVGDRVTITCRASQPIVRNLRWYQQKLGKAPKLLIFSSSYLEPGVPSRFSGSGSGTDFTLTISSLQPEDFATYHCQQGYRWPVTFGQGTKVEIKR |
| 0.3 nM | ABT1-95-75 (other, VK dAb) VL: DIQMTQSPSSLSASVGDRVTITCRASQPIVRNLRWYQQKPGKAPKLLIYSASYLEPGVPSRFSGSGSGTDFTLTISSLQPEDFATYHCQQGYRWPVTFGQGTKVEIKR |
| 0.1 nM | ABT1-95-70 (other, VK dAb) VL: DIQMTQSPSSLSASVGDRVTITCRASQPIVRNLRWYQQKPGKAPKLLVYGSSYLEPGVPSRFSGSGSGTDFTLTISSLQPEDFATYHCQQGYRWPVTFGQGTKVEIKR |
| 0.2 nM | ABT1-95-83 (other, VK dAb) VL: DIQMTQSPSSLSASVGDRVTITCRASQPIVRNLRWYQQKPGKAPKLLIYSSSYLEPGVPPRFSGSGSGTDFTLTISSLQPEDFATYHCQQGYRWPVTFGQGTKVEIKR |
